Test results from US20220306758A1 (Regeneron, published 2022).

T1: human BCMA on cells (endogenous, on multiple myeloma and lymphoma cell lines) (human, UniProt Q02223 1-184)
T1 sequence: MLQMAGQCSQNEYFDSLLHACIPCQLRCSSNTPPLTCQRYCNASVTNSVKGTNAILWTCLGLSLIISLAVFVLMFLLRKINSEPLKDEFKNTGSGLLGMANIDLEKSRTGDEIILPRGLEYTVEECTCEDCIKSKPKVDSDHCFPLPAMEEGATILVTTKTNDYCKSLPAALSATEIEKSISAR

T2: human BCMA-MFC (extracellular domain of human BCMA with C-terminal mFc tag) (human)
T2 construct: also called hBCMA.mFc
T2 chain: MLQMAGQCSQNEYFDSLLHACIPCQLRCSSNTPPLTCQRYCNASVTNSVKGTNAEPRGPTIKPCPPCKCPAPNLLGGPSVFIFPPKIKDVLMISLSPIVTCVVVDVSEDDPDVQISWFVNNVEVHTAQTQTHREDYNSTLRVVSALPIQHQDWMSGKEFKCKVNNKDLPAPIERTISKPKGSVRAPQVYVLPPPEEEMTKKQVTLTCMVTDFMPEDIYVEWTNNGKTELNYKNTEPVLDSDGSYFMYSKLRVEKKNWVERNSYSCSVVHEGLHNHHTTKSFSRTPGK

T3: mouse BCMA-MFC (BCMA with C-terminal mFc tag) (mouse)
T3 construct: Tested at 30 nM only
T3 chain: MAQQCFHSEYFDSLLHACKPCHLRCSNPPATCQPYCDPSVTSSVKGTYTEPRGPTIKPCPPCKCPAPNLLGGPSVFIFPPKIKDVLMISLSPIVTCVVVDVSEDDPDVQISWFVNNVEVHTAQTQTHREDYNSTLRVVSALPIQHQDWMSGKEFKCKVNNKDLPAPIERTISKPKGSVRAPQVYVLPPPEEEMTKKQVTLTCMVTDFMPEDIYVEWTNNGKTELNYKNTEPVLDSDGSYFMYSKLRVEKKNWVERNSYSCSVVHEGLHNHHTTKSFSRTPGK

T4: human BCMA-MMH (extracellular domain of human BCMA with C-terminal myc-myc-hexahistidine tag) (human)
T4 construct: Monomeric antigen; the entry holds the ectodomain and the myc-myc-His tag; also called hBCMA.mmh; hBCMA.mmH
T4 chain: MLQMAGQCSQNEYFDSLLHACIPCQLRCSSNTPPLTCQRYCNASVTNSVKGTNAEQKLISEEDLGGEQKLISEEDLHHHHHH

B1: mAb21581, bivalent anti-BCMA antibody (parent of REGN5458) (antibody, V domains shown)
VH: EVQLVESGGGLVQPGGSLRLSCAASGFTFSNFWMTWVRQAPGKGLEWVANMNQDGSEKYYVDSVKGRFTISRDNAKSSLYLQMNSLRAEDTAVYYCARDREYCISTSCYDDFDYWGQGTLVTVSS
VL: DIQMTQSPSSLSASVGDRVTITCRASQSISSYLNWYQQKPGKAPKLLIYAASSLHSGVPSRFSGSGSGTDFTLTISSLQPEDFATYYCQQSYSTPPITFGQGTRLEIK
B2: mAb16747 (REGN4515) (antibody, V domains shown)
VH: QVQLVESGGGLVKPGGSLRLSCAASGFTFSDYYISWIRQAPGKGLEWVSYISSSGSSIKYADSVKGRFTISRDNAKNSLYLQMNSLRAEDTAVYYCAREGGNYGMDVWGQGTTVTVSS
VL: DIQMTQSPSSVSASVGDRVTITCRASQGINNWLVWYQQKPGKAPKLLIYAATSLQSGVPSRFSGSGSGTDFTLTISSLQPEDFATYYCQQANSFPPTFGQGTKLEIK
notes: Anti-BCMA monoclonal antibody; human Fc (captured by anti-human Fc)
B3: mAb16732 (REGN4514) (antibody, V domains shown)
VH: EVQLVESGGGLVQPGRSLRLSCAASGFTFDDYAMHWVRQAPGKGLEWVSGISWNSGNMGYADSVKGRFTISRDNAKNSLFLQMHSLRAEDTAFYYCAKVRLTAFDFWGQGTLVTVSS
VL: DIQMTQSPSSLSASVGDRVTITCRTSQSIGNYLNWFQQKPGKAPKLLIYTASSLQNGVPSRFTGSGSGTDFTLTISSLQPEDFVIYYCQQSFSTPYTFGQGTKLEIK
notes: as for B2
B4: mAb16711 (antibody, V domains shown)
VH: QVQLVESGGGVVQPGRSLRLSCAASGFTFSTYGIHWVRQAPGKGLEWVAVILHDGSSNYYAESVKGRFIISRDNSKNTLYLQMNSLRAEDTALYYCTKRYSEAAGPNWFDPWGQGTLVTVSS
VL: DIQMTQSPSSVSASVGDRVTITCRASRGISSWLAWYQQKPGKAPKLLIHAASSLQSGVPSRFSGSGSGTDFTLTISSLQPEDFATYYCQQAISFPFTFGPGTKVDIK
notes: as for B2
B5: mAb16716 (antibody, V domains shown)
VH: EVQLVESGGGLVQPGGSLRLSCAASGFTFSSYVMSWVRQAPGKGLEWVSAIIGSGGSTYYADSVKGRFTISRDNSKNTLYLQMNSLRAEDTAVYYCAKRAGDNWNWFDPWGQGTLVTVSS
VL: DIQMTQSPSSVSASLGDRVTITCRASQGISSWLAWYQRKPGKAPKLLIYAASSLQSGVPSRFSGSGSGADFTLTISSLQPEDFATYYCQQAKSVPFTFGPGTKVDIK
notes: as for B2

What was measured:
[1] = molecular target: T1, human BCMA on cells (endogenous, on …); experiment: cell-based or functional assay
[2] = molecular target: T1, human BCMA on cells (endogenous, on …); experiment: cell-based or functional assay; remark: listed apart in the source
[3] = molecular target: T1, human BCMA on cells (endogenous, on …); experiment: cell-based or functional assay; remark: listed apart in the source
[4] = molecular target: T1, human BCMA on cells (endogenous, on …); experiment: cell-based or functional assay; remark: listed apart in the source
[5] = molecular target: T2, human BCMA-MFC (extracellular domain of …); experiment: SPR, Biacore, mAb captured by anti-hFc, 25 C
Procedure: (§1) The CM5 Biacore sensor surface was derivatized by amine coupling with a monoclonal mouse anti-human Fc antibody (GE, #BR-1008-39) to capture purified anti-BCMA mAbs and anti-BCMA×anti-CD3 bispecific mAbs. All Biacore binding studies were performed in a buffer composed of 0.01M HEPES pH 7.4, 0.15M NaCl, 3 mM EDTA, 0.05% v/v Surfactant P20 (HBS-ET running buffer). […] Antigen samples were then injected over the anti-BCMA and anti-BCMA×anti-CD3 bispecific mAbs captured surfaces at a flow rate of 30 μL/minute. Antibody-reagent association was monitored for 5 minutes while dissociation in HBS-ET running buffer was monitored for 10 minutes. All of the binding kinetics experiments were performed at 25° C. Kinetic association (kₐ) and dissociation (kd) rate constants were determined by fitting the real-time sensorgrams to a 1:1 binding model using Scrubber 2.0c curve fitting software. Binding dissociation equilibrium constants (KD) and dissociative half-lives (t½) were calculated from the kinetic rate constants as: […]

[6] = molecular target: T3, mouse BCMA-MFC (BCMA with C-terminal …); experiment: SPR, Biacore, mAb captured by anti-hFc, 25 C
Procedure: as §1

[7] = molecular target: T5, monkey BCMA-MFC (monkey BCMA with C-terminal mFc tag) (monkey); experiment: SPR, Biacore, mAb captured by anti-hFc, 25 C
T5 construct: also called mfBCMA.mFc
Procedure: as §1

[8] = molecular target: T4, human BCMA-MMH (extracellular domain of …); experiment: SPR, Biacore, mAb captured by anti-hFc, 25 C
Procedure: as §1

[9] = molecular target: T6, monkey BCMA-MMH (monkey BCMA with C-terminal myc-myc-hexahistidine tag) (monkey); experiment: SPR, Biacore, mAb captured by anti-hFc, 25 C
T6 construct: The words 'extracellular domain' stand before human BCMA in the sentence and are read as applying to the monkey construct too; also called mfBCMA.mmh
Procedure: as §1

Binder | MFI fold change over cells incubated in media only, NCI-H929, 18 h with 67 nM antibody, then stained with the same antibody [1] [fold] | MFI fold change over cells incubated in media only, NCI-H929, 18 h with 667 nM antibody, then stained with the same antibody [1] [fold] | MFI fold change over cells incubated in media only, U266, 18 h with 67 nM antibody, then stained with the same antibody [3] [fold] | MFI fold change over cells incubated in media only, U266, 18 h with 667 nM antibody, then stained with the same antibody [3] [fold] | MFI fold change over cells incubated in media only, Molp8, 18 h with 67 nM antibody, then stained with the same antibody [4] [fold] | 30 nM hBCMA.mFc Bind (RU) [5] [RU] | Kd [5] [nM] | koff [5] [s⁻¹] | kon [5] [M⁻¹ s⁻¹] | t½ [5] [min] | 30 nM mfBCMA.mFc Bind (RU) (mouse BCMA-MFC by the table's title) [6] | Kd [6] [nM] | koff [6] [s⁻¹] | kon [6] [M⁻¹ s⁻¹] | t½ [6] [min] | 90 nM hBCMA.mmh Bind (RU) [8] [RU] | Kd [8] [nM] | koff [8] [s⁻¹] | kon [8] [M⁻¹ s⁻¹] | t½ [8] [min] | also measured
B1 | 1.2 | 1.4 | 1.8 | 2.3 | 2.3 |  |  |  |  |  |  |  |  |  |  |  |  |  |  |  | MFI fold change over cells incubated in media only, MM1S, 18 h with 67 nM antibody, then stained with the same antibody [2]: 7.3 fold; MFI fold change over cells incubated in media only, MM1S, 18 h with 667 nM antibody, then stained with the same antibody [2]: 7 fold; MFI fold change over cells incubated in media only, Molp8, 18 h with 667 nM antibody, then stained with the same antibody [4]: 3.7 fold
B2 | 1.8 | 2.1 | 1.5 | 1.7 | 2.2 | 146 | 0.0633 | 8.95e-05 | 1.41e+06 | 129 | 108 | 4.42 | 0.00418 | 947000 | 2.8 | 31.4 | 2.84 | 0.00247 | 869000 | 4.7 | MFI fold change over cells incubated in media only, Molp8, 18 h with 667 nM antibody, then stained with the same antibody [4]: 0.6 fold; 30 nM mfBCMA.mFc Bind (RU) [7]: 101 RU; Kd [7]: 3.37 nM; koff [7]: 0.00716 s⁻¹; kon [7]: 2.13e+06 M⁻¹ s⁻¹; t½ [7]: 1.6 min
B3 |  |  |  |  |  | 124 | 0.0422 | 4.53e-05 | 1.07e+06 | 255 | 110 | 0.677 | 0.000269 | 397000 | 43 | 25.3 | 2.69 | 0.00285 | 1.06e+06 | 4.1 | 30 nM mfBCMA.mFc Bind (RU) [7]: 40.3 RU; Kd [7]: 14.7 nM; koff [7]: 0.00724 s⁻¹; kon [7]: 492000 M⁻¹ s⁻¹; t½ [7]: 1.6 min
B4 | 2.8 | 2.1 | 2.2 | 2.2 | 3.5 | 114 | 0.103 | 0.00019 | 1.85e+06 | 60.8 | 90 | 1.02 | 0.0011 | 1.07e+06 | 10.5 | 22.2 | 1.73 | 0.00347 | 2.01e+06 | 3.3 | MFI fold change over cells incubated in media only, Molp8, 18 h with 667 nM antibody, then stained with the same antibody [4]: 3 fold; 30 nM mfBCMA.mFc Bind (RU) [7]: 0.9 RU; binding result [7]: no binding (tested: 30 nM); 90 nM mfBCMA.mmh Bind (RU) [9]: -0.5 RU
B5 |  |  |  |  |  | 120 | 0.0968 | 8.35e-05 | 862000 | 138 | 33.4 | 18.8 | 0.00385 | 205000 | 3 | 26.4 | 3.56 | 0.00299 | 841000 | 3.9 | 90 nM mfBCMA.mmh Bind (RU) [9]: 0.8 RU; binding result [9]: no binding (tested: 90 nM)
